Tests used:
[1] = biological target: human-mouse chimeric DLK1 HM1-mGFP on HEK293T cells (region 1 of human DLK1 long form replaced with mouse); assay: direct flow cytometry, control antibody at 20ug/ml, cells 834 HEK293T DLK1HM1-mGFP; no ab 1,385.00; same antibody on HEK293T parental 4,432.00
[2] = biological target: human-mouse chimeric DLK1 HM2-mGFP on HEK293T cells (region 2 of human DLK1 long form replaced with mouse); assay: direct flow cytometry, control antibody at 20ug/ml, cells 835 HEK293T DLK1HM2-mGFP; no ab 1,251.00; same antibody on HEK293T parental 4,432.00
[3] = biological target: human-mouse chimeric DLK1 HM3-mGFP on HEK293T cells (region 3 of human DLK1 long form replaced with mouse); assay: direct flow cytometry, control antibody at 20ug/ml, cells 836 HEK293T DLK1HM3-mGFP; no ab 1,657.50; same antibody on HEK293T parental 4,432.00
[4] = biological target: human-mouse chimeric DLK1 HM4-mGFP on HEK293T cells (region 4 of human DLK1 long form replaced with mouse); assay: direct flow cytometry, control antibody at 20ug/ml, cells 837 HEK293T DLK1HM4-mGFP; no ab 1,516.00; same antibody on HEK293T parental 4,432.00
[5] = biological target: human-mouse chimeric DLK1 HM7-mGFP on HEK293T cells (region 7 of human DLK1 long form replaced with mouse); assay: direct flow cytometry, control antibody at 20ug/ml, cells 848 HEK293T DLK1 HM7-mGFP; no ab 1,583.50; same antibody on HEK293T parental 4,432.00
[6] = biological target: human-mouse chimeric DLK1 HM8-mGFP on HEK293T cells (region 8 of human DLK1 long form replaced with mouse); assay: direct flow cytometry, control antibody at 20ug/ml, cells 849 HEK293T DLK1 HM8-mGFP; no ab 1,653.50; same antibody on HEK293T parental 4,432.00
[7] = biological target: human-mouse chimeric DLK1 HM5-mGFP on HEK293T cells (region 5 of human DLK1 long form replaced with mouse); assay: direct flow cytometry, control antibody at 20ug/ml, cells 850 HEK293T DLK1 HM5-mGFP; no ab 1,807.00; same antibody on HEK293T parental 4,432.00
[8] = biological target: human-mouse chimeric DLK1 HM6-mGFP on HEK293T cells (region 6 of human DLK1 long form replaced with mouse); assay: direct flow cytometry, control antibody at 20ug/ml, cells 851 HEK293T DLK1 HM6-mGFP; no ab 1,992.00; same antibody on HEK293T parental 4,432.00
[9] = biological target: human DLK1 long form (isoform 1, DLK1-FL) fused to mGFP, overexpressed on HEK293T cells (human) (UniProt P80370); assay: direct flow cytometry, control antibody at 20ug/ml, cells HEK293T DLK1 mGFP G06 (long form); no ab 1,649.00; same antibody on HEK293T parental 4,432.00
[10] = biological target: human DLK1 long form (isoform 1, DLK1-FL) fused to mGFP, overexpressed on HEK293T cells (human) (UniProt P80370); assay: direct flow cytometry, AF647-labelled control antibody at 20ug/ml, cells HEK293T DLK1 mGFP G06 (long form); same antibody on HEK293T parental 21,331.00
[11] = biological target: human DLK1 short form (isoform 2, DLK1-MB) fused to mGFP, expressed on HEK293T cells (human) (UniProt P80370); assay: direct flow cytometry, AF647-labelled control antibody at 20ug/ml, cells 832-HEK293T DLK1 Iso2-mGFP mass pop (short form); same antibody on HEK293T parental 21,331.00
[12] = biological target: human DLK1 long form (isoform 1, DLK1-FL) fused to mGFP, overexpressed on HEK293T cells (human) (UniProt P80370); assay: indirect flow cytometry, 1° control antibody at 4ug/ml detected with an AF-647 secondary antibody, cells HEK293T DLK1 mGFP G06 (long form); same antibody on HEK293T parental 3,130.00
[13] = biological target: human DLK1 short form (isoform 2, DLK1-MB) fused to mGFP, expressed on HEK293T cells (human) (UniProt P80370); assay: indirect flow cytometry, 1° control antibody at 4ug/ml detected with an AF-647 secondary antibody, cells 832-HEK293T DLK1 Iso2-mGFP mass pop (short form); same antibody on HEK293T parental 3,130.00
[14] = biological target: human DLK1 endogenously expressed on COR-L279 small cell lung carcinoma cells (human) (UniProt P80370); assay: flow cytometry, ADC at 20µg/ml, row CORL-279 (SCLC, DLK+); row M202 of the same block: 4,385.0
[15] = biological target: human DLK1 endogenously expressed on COR-L279 small cell lung carcinoma cells (human) (UniProt P80370); assay: flow cytometry, (His)6-tagged scFv detected with AF647-anti-His tag 2° Ab, CORL279 (DLK1+) cells; same scFv on M202 (DLK1-) 11,680.00; 2° Ab only on CORL279 63,034.00; no ab 4,394.00
[16] = biological target: human DLK1 endogenously expressed on COR-L279 small cell lung carcinoma cells (human) (UniProt P80370); assay: flow cytometry, (His)6-tagged scFv detected with AF647-anti-His tag 2° Ab, CORL279 (DLK1+) cells; same scFv on M202 (DLK1-) 9,460.00; 2° Ab only on CORL279 63,034.00; no ab 4,394.00
[17] = biological target: human DLK1 endogenously expressed on COR-L279 small cell lung carcinoma cells (human) (UniProt P80370); assay: flow cytometry, (His)6-tagged scFv detected with AF647-anti-His tag 2° Ab, CORL279 (DLK1+) cells; same scFv on M202 (DLK1-) 8,072.00; 2° Ab only on CORL279 63,034.00; no ab 4,394.00
[18] = biological target: DLK1 ECD-mFc long form (human DLK1-FL, isoform 1) (human) (UniProt P80370); assay: ELISA, plate coated with DLK1 ECD-mFc long form, anti-human IgG Fc-HRP detection
[19] = biological target: DLK1 ECD-mFc long form (human DLK1-FL, isoform 1) (human) (UniProt P80370); assay: ELISA, plate coated with long form of DLK1 ECD-mFc (isoform 1), anti-human IgG Fc-HRP, OD450nm
[20] = biological target: human DLK1 long form (isoform 1, DLK1-FL) fused to mGFP, overexpressed on HEK293T cells (human) (UniProt P80370); assay: direct flow cytometry, AF647-labelled antibody at 20ug/ml, cells HEK293T DLK1 mGFP G06 (long form); same antibody on HEK293T parental 17,562.00
[21] = biological target: human DLK1 long form (isoform 1, DLK1-FL) fused to mGFP, overexpressed on HEK293T cells (human) (UniProt P80370); assay: indirect flow cytometry, 1° antibody at 4ug/ml detected with an AF-647 secondary antibody, cells HEK293T DLK1 mGFP G06 (long form); same antibody on HEK293T parental 2,827.00
[22] = biological target: human DLK1 short form (isoform 2, DLK1-MB) fused to mGFP, expressed on HEK293T cells (human) (UniProt P80370); assay: direct flow cytometry, AF647-labelled antibody at 20ug/ml, cells 832-HEK293T DLK1 Iso2-mGFP mass pop (short form); same antibody on HEK293T parental 17,562.00; hIgG1-AF647 on the same cells 29,714.00
[23] = biological target: human DLK1 short form (isoform 2, DLK1-MB) fused to mGFP, expressed on HEK293T cells (human) (UniProt P80370); assay: indirect flow cytometry, 1° antibody at 4ug/ml detected with an AF-647 secondary antibody, cells 832-HEK293T DLK1 Iso2-mGFP mass pop (short form); same antibody on HEK293T parental 2,827.00; hIgG1 on the same cells 2,895.00

human DLK1 short form (isoform 2, DLK1-MB) fused to mGFP, expressed on HEK293T cells (human), sequence (P80370 other isoform, or with tags, fused parts or gaps): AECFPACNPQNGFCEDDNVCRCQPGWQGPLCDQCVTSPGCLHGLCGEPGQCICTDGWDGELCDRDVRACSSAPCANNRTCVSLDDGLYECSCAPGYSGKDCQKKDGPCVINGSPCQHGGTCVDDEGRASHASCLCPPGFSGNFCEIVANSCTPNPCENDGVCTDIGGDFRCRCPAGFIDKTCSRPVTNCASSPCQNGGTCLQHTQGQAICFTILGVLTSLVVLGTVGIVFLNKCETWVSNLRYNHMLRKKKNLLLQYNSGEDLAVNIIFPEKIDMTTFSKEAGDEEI
human DLK1 long form (isoform 1, DLK1-FL) fused to mGFP, overexpressed on HEK293T cells (human), sequence (P80370 24-383): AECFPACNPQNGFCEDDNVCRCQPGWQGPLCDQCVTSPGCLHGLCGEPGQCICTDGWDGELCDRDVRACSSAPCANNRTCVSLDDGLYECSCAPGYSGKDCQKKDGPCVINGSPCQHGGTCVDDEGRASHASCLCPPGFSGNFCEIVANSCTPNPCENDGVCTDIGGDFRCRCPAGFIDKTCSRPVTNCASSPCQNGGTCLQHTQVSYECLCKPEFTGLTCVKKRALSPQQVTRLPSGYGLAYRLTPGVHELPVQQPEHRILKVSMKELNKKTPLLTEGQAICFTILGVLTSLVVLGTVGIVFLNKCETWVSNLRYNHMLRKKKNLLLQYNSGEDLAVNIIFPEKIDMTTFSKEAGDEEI
DLK1 ECD-mFc long form (human DLK1-FL, isoform 1) (human), sequence (P80370 24-303): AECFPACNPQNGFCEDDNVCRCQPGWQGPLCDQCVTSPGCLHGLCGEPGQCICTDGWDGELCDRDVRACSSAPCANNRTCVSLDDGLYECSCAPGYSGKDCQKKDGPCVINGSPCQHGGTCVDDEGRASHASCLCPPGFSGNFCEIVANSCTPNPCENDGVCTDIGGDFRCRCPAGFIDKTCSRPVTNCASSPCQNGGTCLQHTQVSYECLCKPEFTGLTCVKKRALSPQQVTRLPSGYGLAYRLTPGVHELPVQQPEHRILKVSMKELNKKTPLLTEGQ
human-mouse chimeric DLK1 HM8-mGFP on HEK293T cells (region 8 of human DLK1 long form replaced with mouse), sequence (chain, as listed by the source mutant limits assumed, form in doubt): as the sequence (P80370 24-383) above, with A93T, Y96F, K103H, D105A, T120A, R127Q counted along it
human-mouse chimeric DLK1 HM5-mGFP on HEK293T cells (region 5 of human DLK1 long form replaced with mouse), sequence (chain, as listed by the source mutant limits assumed, form in doubt): as the sequence (P80370 24-383) above, with F4D, A6P, N8D, N11Y, D16A, Q23H, P24V, Q27E counted along it

“non-targeting human IgG1 negative control antibody” was tested, and the FL4H/AF-647 signal [1] was 8760, the FL4H/AF-647 signal [2] was 8510 and the FL4H/AF-647 signal [3] was 8770. For the same molecule, the FL4H/AF-647 signal [4] was 8480, the FL4H/AF-647 signal [5] was 5270 and the FL4H/AF-647 signal [6] was 4360. It also gave an FL4H/AF-647 signal [7] of 7660, an FL4H/AF-647 signal [8] of 6460 and an FL4H/AF-647 signal [9] of 9870. For the same molecule, the FL4H/AF-647 signal [10] was 47900, the FL4H/AF-647 signal [11] was 29700 and the FL4H/AF-647 signal [12] was 4120. The FL4H/AF-647 signal [13] was 2900.

B1: 04-0547-h2-MMAE-AF647 (04-0547-h2 antibody conjugated to both MMAE and Alexa Fluor 647) (antibody, IgG1, V domains shown)
VH: EVQLVESGGGLVQPGGSLRLSCAASGFSISDYYMAWVRQAPGKGLEWVANINYDGTNTYYADSVKGRFTISRDNSKNTLYLQMNSLRAEDTAVYYCVRSYYYYGMEYWGQGTTVTVSS
VL: DIQMTQSPSSLSASVGDRVTITCRASHDVSTAVAWYQQKPGKAPKLLIYSASYRYTGVPSRFSGSGSGTDFTLTISSLQPEDFATYYCQQHYRIPLTFGQGTKLEIK
modifications: MC-VC-PAB-MMAE on free thiols of cysteines (see heavy chain); MC-VC-PAB-MMAE on free thiols of cysteines (about 90% at reduced interchain disulfides, average 4 MMAE per antibody); Alexa Fluor 647 label
B1 gave an ADC Binding Activity by Flow Cytometry (20µg/ml) [14] of 225000.

B2: 04-0561-F1scfv, single chain Fv of 04-0561-F1 DLK1 antibody, with C-terminal (His)6 tag (scFv)
scFv: DIVMTQSPDSLAVSLGERVTMNCKSSQSLLQSSNQKNYLAWYQQKPGQPPKLLVYFASTRESGVPDRFSGSGSGTDFTLTISSVQAEDVAVYYCQQHYSIPLTFGQGTKLEIKGGGGSGGGGSGGGGSQVQLQESGPGLVKPSETLSLTCTVSGFSLSIYSVHWVRQPPGKGLEWIGLIWGGGSTDYNPSLKSRVTISKDTSKNQVSLKLSSVTAADTAVYYCARKEGNYLWFAYWGQGTLVTVSSHHHHHH
Molecule B2 has an average AF-647 fluorescence (FL4-H) [15] of 1.43e+06.

B3: 04-0547-h2scfv, single chain Fv of 04-0547-h2 DLK1 antibody, with C-terminal (His)6 tag (scFv)
scFv: DIQMTQSPSSLSASVGDRVTITCRASHDVSTAVAWYQQKPGKAPKLLIYSASYRYTGVPSRFSGSGSGTDFTLTISSLQPEDFATYYCQQHYRIPLTFGQGTKLEIKGGGGSGGGGSGGGGSEVQLVESGGGLVQPGGSLRLSCAASGFSISDYYMAWVRQAPGKGLEWVANINYDGTNTYYADSVKGRFTISRDNSKNTLYLQMNSLRAEDTAVYYCVRSYYYYGMEYWGQGTTVTVSSHHHHHH
B3 was tested, and the average AF-647 fluorescence (FL4-H) [16] was 763000.

B4: 04-0562-h10scfv, single chain Fv of 04-0562-h10 DLK1 antibody, with C-terminal (His)6 tag (scFv)
scFv: DIVMTQSPLSLPVTPGEPASISCRSSQSLVHINGNTYLHWYLQKPGQSPQLLIYKVSNRFSGVPDRFSGSGSGTDFTLKISRVEAEDVGVYYCSQTTHVPWTFGQGTKLEIKGGGGSGGGGSGGGGSQVQLQESGPGLVKPSETLSLTCTVSGFSLTSYGVSWVRQPPGKGLEWIGVIWGDGSTSYNPSLKSRVTISKDTSKNQVSLKLSSVTAADTAVYYCAKPDGPLGQGTLVTVSSHHHHHH
In the case of B4, the average AF-647 fluorescence (FL4-H) [17] is reported as 622000.

B5: LegoChem 18A5 benchmark anti-DLK1 antibody (antibody, from another filing, V domains shown)
VH: QVQLVQSGGAVVQPGHSLRLSCEASGFKFKDYGMHWVRQAPGKGLEWLAVISHDGRNKNYADSVKGRLTISRDNSKNTLSFQMNSLRAEDTAVYYCVRDWSYAFDIWGQGTLVTVSS
VL: DIQMTQSPSFLSASVGDRVNITCRASQDISRRLAWYQQKPGKAPKLLIYGAASLQSAVASRFSGSGSGTEFTLTISSLQPEDFANYYCQQIYTTPLTFGGGTKVEIK
For B5, the EC50 [18] was 17.9 nM, the EC50 [19] was 17.9 nM and the FL4H/AF-647 signal [20] was 153000. The FL4H/AF-647 signal [21] was 20400, the FL4H/AF-647 signal [22] was 43500 and the FL4H/AF-647 signal [23] was 3350.

From US20250042992A1 (University of California, published 2025)
